Assay results reported in article PMC8081927.

Target: Aβ1-42 fibrils (UniProt P05067)
Assay: flow cytometry on beads; Aβ fibrils (1% biotinylated, 1 μM) immobilised on streptavidin Dynabeads, blocked with 10% milk; antibody dilutions in PBSB with 1% milk, 3 h, 25 °C; detected with goat anti-human Fc AF647; apparent affinity (EC50)

B1: crenezumab (variable domains grafted onto an IgG1 scaffold with a human Fc fragment) (antibody, V domains shown)
VH: EVQLVESGGGLVQPGGSLRLSCAASGFTFSSYGMSWVRQAPGKGLELVASINSNGGSTYYPDSVKGRFTISRDNAKNSLYLQMNSLRAEDTAVYYCASGDYWGQGTTVTVSS
VL: DIVMTQSPLSLPVTPGEPASISCRSSQSLVYSNGDTYLHWYLQKPGQSPQLLIYKVSNRFSGVPDRFSGSGSGTDFTLKISRVEAEDVGVYYCSQSTHVPWTFGQGTKVEIK
With B1 the EC50 was 9 nM.
